T1: human GPA33 expressed on CHO-K1 cells (hGPA33-expressing cells co-expressing GFP) (human, UniProt Q99795 22-319)
T1 construct: whole, on cells; CHO-K1 transfected with an hGPA33 expression vector (ORIGENE) co-expressing GFP
T1 sequence (looked up): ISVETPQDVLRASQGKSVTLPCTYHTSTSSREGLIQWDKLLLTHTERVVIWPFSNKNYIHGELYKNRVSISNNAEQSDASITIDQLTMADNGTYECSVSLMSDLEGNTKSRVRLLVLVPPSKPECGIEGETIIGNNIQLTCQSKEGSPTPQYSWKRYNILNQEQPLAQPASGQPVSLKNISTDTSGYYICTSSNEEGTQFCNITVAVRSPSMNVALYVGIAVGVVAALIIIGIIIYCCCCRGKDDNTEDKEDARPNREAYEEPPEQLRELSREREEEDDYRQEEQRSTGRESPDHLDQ

T2: mouse GPA33 expressed on CHO-K1 cells (mGPA33-expressing cells) (mouse, UniProt Q9JKA5 22-319)
T2 construct: whole, on cells
T2 sequence (looked up): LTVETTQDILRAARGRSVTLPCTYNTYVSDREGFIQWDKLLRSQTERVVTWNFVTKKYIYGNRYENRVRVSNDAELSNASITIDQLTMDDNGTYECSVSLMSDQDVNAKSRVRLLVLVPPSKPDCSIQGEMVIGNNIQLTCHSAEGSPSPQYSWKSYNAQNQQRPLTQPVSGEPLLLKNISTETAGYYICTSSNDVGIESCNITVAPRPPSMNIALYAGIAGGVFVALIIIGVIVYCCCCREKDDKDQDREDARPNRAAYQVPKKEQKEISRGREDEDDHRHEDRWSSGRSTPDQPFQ


Key:
[1] = tested on: Mouse small intestinal organoids; assay: Mouse small intestinal organoid culture; format: cell-based; design: key: those in which clear proliferation was observed are indicated with ○; those in which proliferation was observed but to a weak extent are indicated with △; those in which no proliferation was observed are indicated with ×
Experimental: Mouse small intestinal organoid culture using anti-GPA33 antibody scFv-Rspo fragment fusion (Example 18) and anti-GPA33 antibody scFv-Rspo fragment-Fc conjugate (Example 19) was performed as shown below. Mouse small intestinal organoids (VERITAS ST-70931) were maintenance cultured in ENR medium obtained by adding 2 µg/mL of the recombinant Rspo1FL-Fc prepared in Example 10 to EN medium (DMEM/F-12 containing penicillin/streptomycin, 10 mM HEPES, GlutaMAX, 1xN2, 1xB27 (all Gibco), 1 mM N-acetylcysteine (FUJIFILM Wako Pure Chemical), 50 ng/mL mouse EGF (Gibco), and 100 ng/mL mouse Noggin (PEPROTECH)), or ENR+WA medium (DMEM/F-12 containing penicillin/streptomycin, 10 mM HEPES, GlutaMAX, 1xN2, 1xB27 (all Gibco), […] N-acetylcysteine (FUJIFILM Wako Pure Chemical), 50 ng/mL mouse EGF (Gibco), and 100 ng/mL mouse Noggin (PEPROTECH), 10% Afamin/Wnt3a CM (MBL), and 500 nM A-83-01 (FUJIFILM Wako Pure Chemical)). Mouse small intestinal organoids were collected with Gentle Cell Dissociation Reagent (STEMCELL), resuspended in EN medium and Matrigel (Corning), and seeded onto 48-well plates. 250 µL of (1) EN medium, (2) EN medium containing recombinant Rspo1FL-Fc (20 ng/mL or 1 µg/mL) prepared in Example 10, or (3) EN medium containing anti-GPA33 antibody scFv-Rspo fragment fusion or anti-GPA33 antibody scFv-Rspo fragment-Fc conjugate ([…]) was added to each well. The medium was changed once every three days, and the cells were cultured for six days.
Comparing organoids on the first day (Day 1) and the fifth day (Day 5) after seeding, those in which clear proliferation was observed are indicated with ○, those in which proliferation was observed but to a weak extent are indicated with △, and those in which no proliferation was observed are indicated with ×. Samples that were not evaluated are indicated with ND.

Wnt/β-catenin signal [2] = assay: Wnt/β-catenin reporter EC50 in 293STF cells expressing MOG; format: cell-based, human; settings: NC = low activity, EC50 could not be determined (taken as >30 nM for the ratio)
Experimental: (§1) The Wnt/β-catenin signal promoting activity of the anti-GPA33 antibody scFv-Rspo fragment fusion recombinant prepared in Example 18 was measured as follows. ONE-Glo™ + Tox Luciferase Reporter and Cell Viability Assay (Promega) was used for the measurement. […] The cells into which each vector was introduced were cultured for 2 days in DMEM medium containing 10% FBS (Nichirei), and then the cells were collected and seeded at 100 µL/well on a CulturPlate-96 (PerkinElmer). The next day, 100 µL of (1) control medium or (2) medium containing recombinant Rspo1FL-Fc or various anti-GPA33 antibody scFv-Rspo fragment fusion recombinant proteins prepared in Example 10 (10-fold serial dilution between 10000 and 0.001 ng/mL, final concentration 5000 to […]) was added to each well. […] The fluorescence value was measured using a Microplate Reader SH-9000 (CORONA). 100 µL of ONE-Glo (trademark) Reagent (Promega) was added to the plate and incubated at room temperature for 3 min, after which the luminescence value was measured using a NIVO microplate reader (PerkinElmer). […] Samples with low activity for which the EC50 value could not be determined were marked NC. […]
(§2) The Wnt/β-catenin signal promoting activity of the anti-GPA33 antibody scFv-Rspo fragment-Fc conjugate R1CRD-hFcm-tCAP-G17 prepared in Example 19 was measured as shown in Example 20. […]

Wnt/β-catenin signal [3] = assay: Wnt/β-catenin reporter EC50 in 293STF cells expressing GPA33; format: cell-based, human
Experimental: as §1, §2

[4] = molecular target: T1, human GPA33 expressed on CHO-K1 cells …; assay: FACS, 0.1 µg scFv on GPA33-expressing CHO-K1 cells, anti-His-biotin and SA-PE detection
[5] = molecular target: T2, mouse GPA33 expressed on CHO-K1 cells …; assay: as above

Row | Molecule | organoid proliferation (Day 1 vs Day 5) ([1]; 0.2 ng/ml) | organoid proliferation (Day 1 vs Day 5) ([1]; 0.8 ng/ml) | organoid proliferation (Day 1 vs Day 5) ([1]; 1.4 ng/ml) | organoid proliferation (Day 1 vs Day 5) ([1]; 2 ng/ml) | organoid proliferation (Day 1 vs Day 5) ([1]; 20 ng/ml) | organoid proliferation (Day 1 vs Day 5) ([1]; 100 ng/ml (conjugate section head, or cells marked *)) | organoid proliferation (Day 1 vs Day 5) ([1]; 1000 ng/ml) | EC50 (Wnt/β-catenin signal [2]) [nM] | EC50 (Wnt/β-catenin signal [3]; 293STF cells expressing GPA33, Afamin/Wnt3a 883 ng/mL, 18 hr) [nM] | EC50(MOG)/ EC50(GPA33) (Wnt/β-catenin signal [3]; ratio, NC assumed >30 nM) | binding result [4] | binding result [5]
1 | R1CRD-hFcm-tCAP-G17: conjugate of azidized R1CRD-Fcm and DBCO-G17 scFv by tCAP and click reaction (conjugate) SRGIKGKRQRRISAEGSQACAKGCELCSEVNGCLKCSPKLFILLERNDIRQVGVCLPSCPPGYFDARNPDMNKCIKCKIEHCEACFSHNFCTKCKEGLYLHKGRCYPACPEGSSAANGTMECSSPAEPKSADKTHTCPPCPAPEAEGAPSVFLFPPKPKDTLMISRTPEVTCVVVDVSHEDPEVKFNWYVDGVEVHNAKTKPREEQYNSTYRVVSVLTVLHQDWLNGKEYKCAVSNKALPASIEKTISKAKGQPREPQVYTLPPSREEMTKNQVSLTCLVKGFYPSDIAVEWESNGQPENNYKTTPPVLDSDGSFFLYSKLTVDKSRWQQGNVFSCSVMHEALHNHYTQKSLSLSPGK scFv: QMQLVQSGGGLVKPGGSLRLSCAASGFTFSSYNMNWVRQAPGKGLEWVSSISSSGDFMYYADSVKGRFTISRDNAKNSLYLQMSSLRAEDTAVYYCAREGPGTPFDYWGQGTLVTVSSGGGGSGGGGSGSTGSAIQLTQSPSSLSASVGDRVTITCRASQSISSFLNWYQHKPGKAPKLLIYVASSLQSGVPSRFSGSGSGTDFTLTISSLQPEDFATYYCQQSHNTPYTFGQGTKLEIKEPRTPRPCLVPRGSHHHHHHGA | × | × | × | × | Δ | ○ | ○ | 4.04 | 0.085 | 47.53 | – | –
2 | 2RC28-Cys anti-GPA33 scFv (Cys-containing sequence, His tag and Myc tag at the C-terminal side), expressed in Escherichia coli (scFv, Periplasmic expression in E. coli HB2151, purified on a His tag column; also called 2RC28 scFv; anti-GPA33 single chain Fv-His) scFv: EVQLVESGGGLVKPGGSLRLSCAASGFTFSSYSMNWVRQAPGKGLEWVSSISRDSTYIYYADSVKGRFTISRDNAKNSLYLQMNSLRAEDTAVYYCAREGVAGAFDIWGQGTMVTVSSGGGGSGGGGSGSTGSAIQLTQSPSSLSASVGDRVTITCRASQSISSYLNWYQQKPGKAPKLLIYIASSLQSGVPSRFSGSGSGTDFTLTISSLQPEDFATYYCQQSYNTWTFGQGTKVEIKAACTSAHHHHHHGAAEQKLISEEDLNGAA | – | – | – | – | – | – | – | – | – | – | binds | binds

— patent EP4636087A1, “ANTI-GPA33 ANTIBODY AND UTILIZATION THEREOF” (Kagoshima University, priority 2022, dated 2024)
